Measured values from paper PMC11677658.

Target: Aspergillus sydowii UBOCC-A-108050 SULT (Aspergillus sydowii UBOCC-A-108050)
Test: SEC; calibrated size exclusion chromatography of the purified recombinant protein alone (self-association)

Aspergillus sydowii UBOCC-A-108050 SULT (enzyme)
stoichiometry N: 2
